The target of experiment [1] is human FGFR2b (beta)-Fc (human) (UniProt P21802). Nature of the experiment: SPR (Biacore), hFGFR2b-Fc immobilized on CM5 chip, antibody injected at 0-200 nM. A general note: Surface plasmon resonance follows binding to a sensor surface in real time, without labels.
Experiment [2] addresses recombinant human FGFR2b-Fc (murine Fc) (human) (UniProt P21802). The experiment is described as follows: ELISA, plate coated with human FGFR2b-Fc, anti-human IgG HRP.
Experiment [3] has as its target human FGFR2b on engineered Ba/F3 cells (Ba/F3-FGFR2b) (human), P21802. The experiment is described as follows: cell-based or functional assay.
Experiment [4] concerns the target endogenous FGFR2b on the cell membrane of human gastric cancer cells (KATOIII, SNU16) (human) (UniProt P21802). Nature of the experiment: flow cytometry on FGFR2b expressing KATOIII cells. For orientation: A flow cytometer gives signals particle by particle.
Experiment [5] addresses human FGFR2b (beta)-Fc (human) (UniProt P21802). The experiment is described as follows: ELISA, plate coated with HuFGFR2b.
Experiment [6] addresses recombinant human FGFR1b-Fc (human) (UniProt P11362). The experiment is described as follows: SPR (Biacore), hFGFR1b-Fc immobilized on CM5 chip, antibody injected at 0-200 nM.
Experiment [7] shares this target. Nature of the experiment: SPR (Biacore T200), hFGFR1b-Fc amine-coupled on CM5 chip, antibody as analyte.

A word on the Kd: it is the constant that tells how readily two partners part at equilibrium. For orientation: koff means a measure of how fast the partners let go of each other. One may read the kon as the second-order rate constant of association. In general, EC50 (read off the curve) refers to the midpoint of the concentration-response curve. What is called EC50 is the midpoint of the concentration-response curve. Read a low EC50 as greater potency.

recombinant human FGFR1b-Fc (human), sequence (P11362 other isoform, or with tags, fused parts or gaps): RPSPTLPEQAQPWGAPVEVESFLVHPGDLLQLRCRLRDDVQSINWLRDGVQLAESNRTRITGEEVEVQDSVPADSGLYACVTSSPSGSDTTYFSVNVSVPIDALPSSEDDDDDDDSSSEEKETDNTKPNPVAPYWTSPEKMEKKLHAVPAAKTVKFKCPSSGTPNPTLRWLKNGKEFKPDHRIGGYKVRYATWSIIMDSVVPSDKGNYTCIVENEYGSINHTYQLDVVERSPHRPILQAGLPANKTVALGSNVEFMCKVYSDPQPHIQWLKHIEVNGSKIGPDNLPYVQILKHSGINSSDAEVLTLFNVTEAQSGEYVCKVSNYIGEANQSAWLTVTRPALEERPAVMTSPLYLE
human FGFR2b on engineered Ba/F3 cells (Ba/F3-FGFR2b) (human), P21802, sequence (P21802 22-821, change not shown): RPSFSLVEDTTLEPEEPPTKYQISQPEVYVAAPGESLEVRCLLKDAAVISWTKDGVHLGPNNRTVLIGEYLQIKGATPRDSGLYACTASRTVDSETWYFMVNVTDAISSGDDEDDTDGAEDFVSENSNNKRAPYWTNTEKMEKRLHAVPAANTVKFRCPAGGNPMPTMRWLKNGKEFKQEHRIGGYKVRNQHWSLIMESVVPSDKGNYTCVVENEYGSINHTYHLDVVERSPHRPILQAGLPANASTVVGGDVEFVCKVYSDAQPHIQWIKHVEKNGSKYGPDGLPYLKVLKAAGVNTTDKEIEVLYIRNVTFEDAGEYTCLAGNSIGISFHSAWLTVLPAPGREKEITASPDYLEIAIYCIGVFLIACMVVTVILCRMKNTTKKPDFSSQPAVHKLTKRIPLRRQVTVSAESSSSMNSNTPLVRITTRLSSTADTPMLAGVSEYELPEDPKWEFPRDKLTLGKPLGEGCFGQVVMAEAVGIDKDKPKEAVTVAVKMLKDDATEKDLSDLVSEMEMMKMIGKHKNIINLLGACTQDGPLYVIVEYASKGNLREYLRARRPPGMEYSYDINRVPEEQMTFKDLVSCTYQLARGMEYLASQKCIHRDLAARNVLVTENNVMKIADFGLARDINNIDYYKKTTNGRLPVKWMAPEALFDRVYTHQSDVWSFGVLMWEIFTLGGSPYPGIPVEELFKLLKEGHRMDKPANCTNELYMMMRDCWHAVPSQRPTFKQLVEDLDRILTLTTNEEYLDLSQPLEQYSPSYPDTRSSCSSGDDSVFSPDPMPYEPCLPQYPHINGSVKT

B1: Ab hu21-26 (antibody, human IgG1, V domains shown)
VH: EVQLVQSGAEVKKPGASVKVSCKASGYTFTNYWMHWVRQAPGQGLEWMGAIYPENRDINYNQKFKGRVTLTRDTSISTAYMELSRLRSDDTAVYYCTSRGDYWGQGTTVTVSS
VL: AIQLTQSPSSLSASVGDRVTITCSASSGLSYMSWYQQKPGKAPKLLIYDTSNLASGVPSRFSGSGSGTDFTLTISSLQPEDFATYYCQQWSSYPYTFGQGTKLEIK
As for B1, in experiment [1], the dissociation constant (Kd) was found to be 482 pM, the koff amounted to 5.58e-05 s⁻¹ and the kon stood at 116000 M⁻¹ s⁻¹.

B2: Ab hu21-21 (antibody, V domains shown)
VH: EVQLVQSGAEVKKPGASVKVSCKASGYTFTNYWMHWVRQAPGQGLEWMGAIYPENGDINYNQKFKGRVTLTRDTSISTAYMELSRLRSDDTAVYYCTSRGDYWGQGTTVTVSS
VL: AIQLTQSPSSLSASVGDRVTITCSASSGLSYMSWYQQKPGKAPKLLIYDTSNLASGVPSRFSGSGSGTDFTLTISSLQPEDFATYYCQQWSSYPYTFGQGTKLEIK
In experiment [1], B2 came in with a Kd of 250 pM, a dissociation rate constant (koff) of 2.45e-05 s⁻¹ and a kon of 98000 M⁻¹ s⁻¹.

B3: Ab 21c (antibody, V domains shown)
VH: EVQLHQSGTVLARPGASVKMSCKTSGYTFTNYWMHWIKQRPGQGLEWIGAIYPENGDINYNQKFKGKAKLTAVTSASTAYMDLSSLTNEDSAVYYCTSRGDYWGQGTTLTVSS
VL: QIVLTQSPAIMSASPGEKVTMTCSASSGLSYMSWYQQKPGSSPRLLIYDTSNLASGVPVRFSGSGSGTSYSLTISRMEAEDAATYYCQQWSSYPYTFGGGTKLEIK
B3: in experiment [1], the Kd amounted to 269 pM, the koff worked out at 2.46e-05 s⁻¹ and the on-rate (kon) is 91300 M⁻¹ s⁻¹. Besides, the concentration for a half-maximal effect (EC50 (read off the curve)) in experiment [2] came out at 400 pM. This molecule also gave a GI50, inhibition of FGF7-induced BaF3 cell proliferation (MTS, 72 hours) in experiment [3] of 10000 pM. The EC50 in experiment [4] is 8000 pM.

B4: Ab 21 (antibody, V domains shown)
VH: EVQLHQSGTVLARPGASVKMSCKTSGYTFTNYWMHWIKQRPGQGLEWIGAIYPENGDINYNQKFKGKAKLTAVTSASTAYMDLSSLTNEDSAVYYCTSRGDYWGQGTTLTVSS
VL: QIVLTQSPAIMSASPGEKVTMTCSASSGLSYMSWYQQKPGSSPRLLIYDTSNLASGVPVRFSGSGSGTSYSLTISRMEAEDAATYYCQQWSSYPYTFGGGTKLEIK
For the molecule B4, the EC50 (read off the curve) in experiment [5] was found to be 400 pM.

B5: FPA144 (antibody, INN chains, looked up, V domains shown)
VH: QVQLVQSGAEVKKPGSSVKVSCKASGYIFTTYNVHWVRQAPGQGLEWIGSIYPDNGDTSYNQNFKGRATITADKSTSTAYMELSSLRSEDTAVYYCARGDFAYWGQGTLVTVSS
VL: DIQMTQSPSSLSASVGDRVTITCKASQGVSNDVAWYQQKPGKAPKLLIYSASYRYTGVPSRFSGSGSGTDFTFTISSLQPEDIATYYCQQHSTTPYTFGQGTKLEIK
Consider B5, for which, in experiment [6], the off-rate (koff) was found to be 0.00746 s⁻¹ and the kon was 33200 M⁻¹ s⁻¹. Also, the dissociation constant (Kd) in experiment [7] was determined as 225000 pM.
